These results are taken from patent US20240052038A1 (IMMUNOBRAIN CHECKPOINT, published 2024).

Test [1] deals with T1, cynomolgus monkey PD-L1 on blood T lymphocytes (cynomolgus monkey, UniProt G7PSE7 19-290).
T1 construct: also called PD-L1 receptor (cynomolgus T cells)
The test is described as follows: receptor occupancy on blood T lymphocytes by flow cytometry, cynomolgus monkeys, up to day 12 after 13 mg/kg IV.
Experimental: (§1) Blood (8 mL) for PBMC isolation was collected at least one day prior to dose and 5, 14, 21 and 30-days post-injection. […] All collected blood and serum samples were frozen for subsequent analysis. […] These antibodies came from a different expression system using transfected HEK cells. Blood (8 mL) for PBMC isolation was collected at least one day prior to dose and 5, 14, 21, 30 and 45-days post-injection. […] All collected blood and serum samples were frozen for subsequent analysis.
(§2) One day prior to dosing (baseline), and on 5, 14, 21, and 30-days post treatment, 8 mL of whole blood was collected for Peripheral Blood Mononuclear Cell (PBMC) isolation and cryopreservation. In the second study, whole blood was also collected also at 45-days post treatment. Samples were analyzed for PD-L1 receptor occupancy on blood T lymphocytes and for Immunophenotype of different immune cell subpopulations. The percentage of PD-L1 receptor occupancy on blood T-lymphocytes by the antibody was assessed using the same method as described above for receptor occupancy in mice.

Test [2] deals with T1, cynomolgus monkey PD-L1 on blood T …. The test is described as follows: receptor occupancy on blood T lymphocytes by flow cytometry, cynomolgus monkeys, day 20 after 13 mg/kg IV (antibody cleared). On the technique in general: Flow cytometry measures light scatter and fluorescence of single cells or particles in a stream.
Experimental: as §1, §2
For test [3], the target named is T2, human PD-L1 (human, UniProt Q9NZQ7 19-238, limits assumed).
T2 construct: also called hPD-L1; Programmed Death-Ligand 1
T2 sequence (Q9NZQ7 19-238 limits assumed): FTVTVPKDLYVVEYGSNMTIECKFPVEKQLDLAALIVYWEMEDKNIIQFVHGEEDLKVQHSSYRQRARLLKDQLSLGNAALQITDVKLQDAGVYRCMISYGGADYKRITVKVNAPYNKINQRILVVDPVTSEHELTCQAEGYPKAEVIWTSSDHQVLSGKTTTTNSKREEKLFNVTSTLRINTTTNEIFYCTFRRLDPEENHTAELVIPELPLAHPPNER
The experiment in a line: SPR.

The next test addresses cynomolgus monkey PD-L1 (cynomolgus monkey, UniProt G7PSE7 19-238). The test is described as follows: SPR. In general terms: In SPR one partner is held on a chip, and binding of the other changes the refractive index at the surface.
Test [4] deals with T2, human PD-L1. The test is described as follows: SPR, kinetics.

T1 sequence (G7PSE7 entry or part of it limits assumed): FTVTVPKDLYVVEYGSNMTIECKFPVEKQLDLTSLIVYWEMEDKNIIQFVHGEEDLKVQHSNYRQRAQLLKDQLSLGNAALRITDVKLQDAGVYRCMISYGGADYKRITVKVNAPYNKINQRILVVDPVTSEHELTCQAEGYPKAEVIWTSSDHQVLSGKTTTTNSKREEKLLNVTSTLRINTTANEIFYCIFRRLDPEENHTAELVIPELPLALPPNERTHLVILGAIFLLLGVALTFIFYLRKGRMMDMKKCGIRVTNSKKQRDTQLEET
Chain of cynomolgus monkey PD-L1 (G7PSE7 entry or part of it limits assumed): as the sequence (Q9NZQ7 19-238 limits assumed) above, with A33T, A34S, S62N, R68Q, Q82R, F173L, T185A, T192I, H215L counted along it

B1: Variant 1-G09 (Fc effector null) (antibody, human IgG1, kappa, L234A L235A)
heavy: EVQLVESGGGLVQPGRSLRLSCAASGFTFDDYAMHWVRQTPGKGLEWVSGISWKSNIIGYADSVKGRFTISRDNAKNSLYLQMNSLRAEDTALYYCARDITGSGSYGWFDPWGQGTLVTVSSASTKGPSVFPLAPSSKSTSGGTAALGCLVKDYFPEPVTVSWNSGALTSGVHTFPAVLQSSGLYSLSSVVTVPSSSLGTQTYICNVNHKPSNTKVDKRVEPKSCDKTHTCPPCPAPEAAGGPSVFLFPPKPKDTLMISRTPEVTCVVVDVSHEDPEVKFNWYVDGVEVHNAKTKPREEQYNSTYRVVSVLTVLHQDWLNGKEYKCAVSNKALPAPIEKTISKAKGQPREPQVYTLPPSREEMTKNQVSLTCLVKGFYPSDIAVEWESNGQPENNYKTTPPVLDSDGSFFLYSKLTVDKSRWQQGNVFSCSVMHEALHNHYTQKSLSLSPG
light: DIQMTQSPSSLSASVGDRVTITCRASQSISSYLNWYQQKPGKAPKPLIYVASSLQSGVPSSFSGSGSGTDFTLTISSLQPEDFATYYCQQSYSNPITFGQGTRLEIKRTVAAPSVFIFPPSDEQLKSGTASVVCLLNNFYPREAKVQWKVDNALQSGNSQESVTEQDSKDSTYSLSSTLTLSKADYEKHKVYACEVTHQGLSSPVTKSFNRGEC
notes: Human IgG1 with L239A, L240A, K327A; kappa light chain; also called null mutant
In test [1], B1 had a receptor occupancy of more than 80%.

B2: Variant 2-G09 (Fc effector null-H315A) (antibody, human IgG1, kappa, L234A L235A)
heavy: EVQLVESGGGLVQPGRSLRLSCAASGFTFDDYAMHWVRQTPGKGLEWVSGISWKSNIIGYADSVKGRFTISRDNAKNSLYLQMNSLRAEDTALYYCARDITGSGSYGWFDPWGQGTLVTVSSASTKGPSVFPLAPSSKSTSGGTAALGCLVKDYFPEPVTVSWNSGALTSGVHTFPAVLQSSGLYSLSSVVTVPSSSLGTQTYICNVNHKPSNTKVDKRVEPKSCDKTHTCPPCPAPEAAGGPSVFLFPPKPKDTLMISRTPEVTCVVVDVSHEDPEVKFNWYVDGVEVHNAKTKPREEQYNSTYRVVSVLTVLAQDWLNGKEYKCAVSNKALPAPIEKTISKAKGQPREPQVYTLPPSREEMTKNQVSLTCLVKGFYPSDIAVEWESNGQPENNYKTTPPVLDSDGSFFLYSKLTVDKSRWQQGNVFSCSVMHEALHNHYTQKSLSLSPG
light: DIQMTQSPSSLSASVGDRVTITCRASQSISSYLNWYQQKPGKAPKPLIYVASSLQSGVPSSFSGSGSGTDFTLTISSLQPEDFATYYCQQSYSNPITFGQGTRLEIKRTVAAPSVFIFPPSDEQLKSGTASVVCLLNNFYPREAKVQWKVDNALQSGNSQESVTEQDSKDSTYSLSSTLTLSKADYEKHKVYACEVTHQGLSSPVTKSFNRGEC
notes: Human IgG1 with L239A, L240A, K327A and H315A; kappa light chain
With B2, the receptor occupancy in test [1] was more than 80%; in test [2] it was less than 20%.

B3: Variant 3-G09 (Fc effector null-H440Q) (antibody, human IgG1, kappa, L234A L235A)
heavy: EVQLVESGGGLVQPGRSLRLSCAASGFTFDDYAMHWVRQTPGKGLEWVSGISWKSNIIGYADSVKGRFTISRDNAKNSLYLQMNSLRAEDTALYYCARDITGSGSYGWFDPWGQGTLVTVSSASTKGPSVFPLAPSSKSTSGGTAALGCLVKDYFPEPVTVSWNSGALTSGVHTFPAVLQSSGLYSLSSVVTVPSSSLGTQTYICNVNHKPSNTKVDKRVEPKSCDKTHTCPPCPAPEAAGGPSVFLFPPKPKDTLMISRTPEVTCVVVDVSHEDPEVKFNWYVDGVEVHNAKTKPREEQYNSTYRVVSVLTVLHQDWLNGKEYKCAVSNKALPAPIEKTISKAKGQPREPQVYTLPPSREEMTKNQVSLTCLVKGFYPSDIAVEWESNGQPENNYKTTPPVLDSDGSFFLYSKLTVDKSRWQQGNVFSCSVMHEALHNQYTQKSLSLSPG
light: DIQMTQSPSSLSASVGDRVTITCRASQSISSYLNWYQQKPGKAPKPLIYVASSLQSGVPSSFSGSGSGTDFTLTISSLQPEDFATYYCQQSYSNPITFGQGTRLEIKRTVAAPSVFIFPPSDEQLKSGTASVVCLLNNFYPREAKVQWKVDNALQSGNSQESVTEQDSKDSTYSLSSTLTLSKADYEKHKVYACEVTHQGLSSPVTKSFNRGEC
notes: Human IgG1 with L239A, L240A, K327A and H440Q; kappa light chain
For B3, the receptor occupancy in test [1] is more than 80%; in test [2] it was less than 20%.

B4: Variant 4-G09 (Fc effector null-H315A + H440Q) (antibody, human IgG1, kappa, L234A L235A)
heavy: EVQLVESGGGLVQPGRSLRLSCAASGFTFDDYAMHWVRQTPGKGLEWVSGISWKSNIIGYADSVKGRFTISRDNAKNSLYLQMNSLRAEDTALYYCARDITGSGSYGWFDPWGQGTLVTVSSASTKGPSVFPLAPSSKSTSGGTAALGCLVKDYFPEPVTVSWNSGALTSGVHTFPAVLQSSGLYSLSSVVTVPSSSLGTQTYICNVNHKPSNTKVDKRVEPKSCDKTHTCPPCPAPEAAGGPSVFLFPPKPKDTLMISRTPEVTCVVVDVSHEDPEVKFNWYVDGVEVHNAKTKPREEQYNSTYRVVSVLTVLAQDWLNGKEYKCAVSNKALPAPIEKTISKAKGQPREPQVYTLPPSREEMTKNQVSLTCLVKGFYPSDIAVEWESNGQPENNYKTTPPVLDSDGSFFLYSKLTVDKSRWQQGNVFSCSVMHEALHNQYTQKSLSLSPG
light: DIQMTQSPSSLSASVGDRVTITCRASQSISSYLNWYQQKPGKAPKPLIYVASSLQSGVPSSFSGSGSGTDFTLTISSLQPEDFATYYCQQSYSNPITFGQGTRLEIKRTVAAPSVFIFPPSDEQLKSGTASVVCLLNNFYPREAKVQWKVDNALQSGNSQESVTEQDSKDSTYSLSSTLTLSKADYEKHKVYACEVTHQGLSSPVTKSFNRGEC
notes: Human IgG1 with L239A, L240A, K327A, H315A and H440Q; kappa light chain; also called double mutant
Molecule B4 returned a receptor occupancy in test [2] of less than 20%.

B5: human anti-PD-L1 monoclonal antibody 84G09 (antibody, V domains shown)
VH: EVQLVESGGGLVQPGRSLRLSCAASGFTFDDYAMHWVRQTPGKGLEWVSGISWKSNIIGYADSVKGRFTISRDNAKNSLYLQMNSLRAEDTALYYCARDITGSGSYGWFDPWGQGTLVTVSS
VL: DIQMTQSPSSLSASVGDRVTITCRASQSISSYLNWYQQKPGKAPKPLIYVASSLQSGVPSSFSGSGSGTDFTLTISSLQPEDFATYYCQQSYSNPITFGQGTRLEIK
notes: also called anti-human PD-L1 antibody (clone 84G09)
The term Kd denotes the equilibrium constant for the complex coming apart. B5: the results for the Kd in the test with human PD-L1 [3], in the test with cynomolgus monkey PD-L1 and with human PD-L1 [4] were 0.43 nM, 0.52 nM and 0.4 nM, respectively.
